T1: hTFPI161-Chis (human, UniProt P10646 29-189, limits assumed)
T1 construct: also called human TFPI; not shown: C-terminal His tag ('Chis')
T1 sequence (looked up): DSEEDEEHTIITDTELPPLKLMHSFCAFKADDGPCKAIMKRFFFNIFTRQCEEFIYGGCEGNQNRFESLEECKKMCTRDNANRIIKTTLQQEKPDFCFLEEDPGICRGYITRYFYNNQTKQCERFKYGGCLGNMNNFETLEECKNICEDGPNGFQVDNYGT


Assays:
hTFPI antigen [1] = biological target: T2, hTFPI antigen (human); assay: competitive ELISA, FXa coated (competitor), supernatant diluted 100x
T2 construct: Self-made hTFPI used in the hybridoma screens; It may be the same protein as hTFPI161; also called human TFPI; hTFPD
Experimental: (§1) Coat with 2μg/mL FXA Protease (Neb, batch No. 0941404), after blocking with BSA, the same diluted supernatant of TFPI hybridoma cells and 50 ng/mL hTFPD (batch No. TE20140825, self-made) were added for complete incubation, followed by 1:1500 diluted mouse THETM His Tag Antibody [HRP] mAb (GenScript, batch No. 14C000744), after development by TMB, 1 M H2SO4 stop solution was added to stop developing and the value was read on the microplate reader. Using 650 nm as the reference wavelength, the OD values were read at 450 nm and 650 nm. […] The lower the OD value, the better the inhibition of the anti-TFPI antibody.
(§2) Afterwards, the supernatant of 31 7G6 subcloned cells was performed with the inhibition experiment at different dilution ratios, and the experimental method was the same as 1.2.

hTFPI antigen [2] = biological target: T2, hTFPI antigen; assay: competitive ELISA, FXa coated (competitor), supernatant diluted 10x
Experimental: as §1, §2

hTFPI antigen [3] = biological target: T2, hTFPI antigen; assay: ELISA, subclone supernatant, hTFPI, OD450
hTFPI161-Chis [4] = biological target: T1, hTFPI161-Chis; assay: competitive ELISA, FXa coated (competitor), 50 ng/mL hTFPI161, anti-His-HRP, four-parameter fit
Experimental: FXa Protease was coated on the plate at 0.2 μg/well overnight at 4° C., after blocking with BSA, the gradient dilution series of hu7G6 antibody protein obtained from the above example was added at 100 uL/well (50 ng/mL hTFPI161 was contained in the dilution), and the reaction was carried out at room temperature for 1 hour. After washing, 1:1500 diluted Mouse THETM His Tag Antibody [HRP] mAb was added, and the reaction was carried out at room temperature for 1 hour. After washing, the development solution was added, and the absorbance was read at the wavelength of 450/650 nm.
The software SotfMax Pro v5.4 was applied for data processing and mapping analysis, using four-parameter fitting, the inhibition curve of h7G6 antibody for FXa-TFPI and EC50 value were obtained. The results were shown in FIG. 3, in which the ordinate was OD450 and the abscissa is the concentration of h7G6 antibody protein (ng/mL); and Hu7G62-v2 antibody protein was effective in inhibiting the interaction between FXA and TFPI.

hTFPI161-Chis [5] = biological target: T1, hTFPI161-Chis; assay: BLI, antibody on Protein A biosensor, hTFPI161-Chis 1.875-30 nM, 1:1 model; mean of three batches; average of three batches
Experimental: (§3) In this experiment, the affinity of h7G6 for human TFPI was detected based on Bio-Layer Interferometry (BLI) technology. K2 instrument of Fortibio was used. Firstly, KN057 was diluted to […] and immobilized on Protein A biosensor (model 18-5010), then hTFPI161-Chis was diluted to 30 nM, 15 nM, 7.5 nM, 3.75 nM and 1.875 nm to combine with h7G6, respectively, and the binding signals with different intensities could be detected. The results were fitted using 1:1 model to calculate the equilibrium constant (KD) of the sample.

hTFPI161-Chis [6] = biological target: T1, hTFPI161-Chis; assay: BLI, antibody on Protein A biosensor, hTFPI161-Chis 1.875-30 nM, 1:1 model; batch 180820DS
Experimental: as §3

hTFPI161-Chis [7] = biological target: T1, hTFPI161-Chis; assay: BLI, antibody on Protein A biosensor, hTFPI161-Chis 1.875-30 nM, 1:1 model; batch 180727DS
Experimental: as §3

hTFPI161-Chis [8] = biological target: T1, hTFPI161-Chis; assay: ELISA, hTFPI161 coated, anti-human IgG4-HRP, four-parameter fit
Experimental: hTFPI161 protein was coated on the plate at 0.5 μg/well overnight at 4° C. After washing, the gradient dilution series of h7G6 antibody protein obtained in the above example was added, and incubated at 25° C±2° C. for 2 h. After washing, 1:2000 diluted Mouse Anti-Human IgG4 pFc′ antibody [HP 6023] (HRP) was added at 100 μL/well, and incubated at 25° C.±2° C. for 2 h. After washing, the development solution was added, and the absorbance was read at the wavelength of 450/650 nm. The software SotfMax Pro v5.4 was applied for data processing and mapping analysis, using four-parameter fitting, the binding curve of h7G6 antibody to hTFPI161 and EC50 value were obtained, which reflects the affinity of the antibody for hTFPI161.

Binder | Inhibition % (hTFPI antigen [1]) | Inhibition % (hTFPI antigen [2]) | OD (hTFPI antigen [3]) | IC50 (hTFPI161-Chis [4]) | Kd (hTFPI161-Chis [5]) | Kd (hTFPI161-Chis [6]) | Kd (hTFPI161-Chis [7]) | EC50 (hTFPI161-Chis [8])
TFPI-7G6-1C12 (antibody, V domains shown, Subclone supernatant) VH: QVQLQQSGAELARPGASVKLSCKASGYSFTSYGISWVKQRTGQGLEWIGEIYPRSTNTYYNEKFMGKATLTADKSSSTAFMELRSLTSEDSAVYFCARESFYGDYGAMDFWGQGASVTVSS VL: not shown | 57.9% | 95.2% | 1.24 |  |  |  |  | 
TFPI-7G6-2G8 (antibody, V domains shown, Subclone supernatant) VH: QVQLQQSGAELARPGASVKLSCKASGYSFTSYGISWVKQRTGQGLEWIGEIYPRSTNTYYNEKFMGKATLTADKSSSTAFMELRSLTSEDSAVYFCARESFYGDYGAMDFWGQGASVTVSS VL: not shown | 62.7% | 95.9% | 1.27 |  |  |  |  | 
Hu7G62-v2 (antibody, human IgG4 S228P, kappa, V domains shown, also called hu7G6-2v2-G4ws; h7G6 antibody) VH: QVQLVQSGAEVKKPGASVKVSCKASGYSFTSYGISWVKQAPGQGLEWIGEIYPRSTNTYYNEKFMGKATLTADKSSSTAYMELSSLRSEDTAVYYCARESFYGDYGAMDFWGQGTLVTVSS VL: DIVMTQSPLSLPVTPGEPASISCKSSQSLLESDGKTYLNWYLQKPGQSPQLLIYLVSKLDSGVPDRFSGSGSGTDFTLKISRVEAEDVGVYYCSQGTHFPRTFGQGTKVEIKR |  |  |  | 0.222 µg/mL | 1.37 nM | 1.47 nM | 1.32 nM | 0.0419 µg/mL

Second part, the binder after the results:

Inhibition % (hTFPI antigen [1]) | Inhibition % (hTFPI antigen [2]) | OD (hTFPI antigen [3]) | IC50 (hTFPI161-Chis [4]) | Kd (hTFPI161-Chis [5]) | Kd (hTFPI161-Chis [6]) | Kd (hTFPI161-Chis [7]) | EC50 (hTFPI161-Chis [8]) | Binder
55% | 95.1% | 1.35 |  |  |  |  |  | TFPI-7G6-5F11 (antibody, V domains shown, Subclone supernatant) VH: QVQLQQSGAELARPGASVKLSCKASGYSFTSYGISWVKQRTGQGLEWIGEIYPRSTNTYYNEKFMGKATLTADKSSSTAFMELRSLTSEDSAVYFCARESFYGDYGAMDFWGQGASVTVSS VL: not shown
62.1% | 95.9% | 1.25 |  |  |  |  |  | TFPI-7G6-5A10 (antibody, V domains shown, Subclone supernatant) VH: QVQLQQSGAELARPGASVKLSCKASGYSFTSYGISWVKQRTGQGLEWIGEIYPRSTNTYYNEKFMGKATLTADKSSSTAFMELRSLTSEDSAVYFCARESFYGDYGAMDFWGQGASVTVSS VL: not shown
